These results are taken from patent publication US20230203162A1 (NUMAB THERAPEUTICS, published 2023).

In experiment [1] the target is T1, cynomolgus monkey MSLN on recombinant CHO cell line (cynomolgus monkey).
T1 construct: whole, on cells; also called plasma-membranous cynomolgus monkey MSLN
As to the kind of experiment: cELISA on CHO cells expressing cynomolgus monkey MSLN, HRP-Protein L.

Experiment [2] addresses T2, recombinant cynomolgus monkey MSLN (purchased from Sino Biological) (cynomolgus monkey).
T2 construct: Bought protein
As to the kind of experiment: SPR, cynomolgus MSLN immobilized on CM5, scFv as analyte, 1:1 Langmuir.

Experiment [3] deals with T3, plasma-membranous human MSLN on cell lines (H226, HPAC, H292, OVCAR-3, MeT-5A) (human, UniProt Q13421 296-598).
T3 construct: whole, on cells; also called human MSLN on H226 cells; mesothelin on target cells
The experiment is described as follows: cELISA on H226 cells, HRP-Protein L.

Experiment [4] addresses T4, recombinant human MSLN (purchased from Peprotech) (human, UniProt Q13421 296-598, limits assumed).
T4 construct: Bought protein; also called recombinant human mesothelin
The experiment is described as follows: SPR, MSLN immobilized on CM5, scFv as analyte, 1:1 Langmuir.

Experiment [5] addresses biotinylated MSLN (human MSLN in the MSLN/MUC16 competition ELISA) (human, UniProt Q13421 296-598, limits assumed, biotinylated). The experiment is described as follows: competition ELISA, scFv titrated with biotinylated MSLN; competitor coated MUC16.
Experiment [6] concerns the target T4, recombinant human MSLN (purchased from …). The experiment is described as follows: SPR (Biacore T200), human MSLN; which of the two formats (MSLN immobilized / antibody captured) not given. On the technique in general: In SPR one partner is held on a chip, and binding of the other changes the refractive index at the surface.
Experiment [7] has as its target T3, plasma-membranous human MSLN on cell …. The experiment is described as follows: cell-based or functional assay.
For experiment [8], the target named is human serum albumin (hSA, Sigma-Aldrich A3782) (human, UniProt P02768 25-609). The experiment is described as follows: SPR, hSA amine-coupled to CM5, antibody injected, pH 5.5, 1:1 Langmuir.
Experiment [9] has as its target soluble mesothelin (sMSLN). The experiment is described as follows: cell-based or functional assay.
Experiment [10] concerns the target T5, human recombinant CD3ε protein (Sino Biological) (human, UniProt P07766 23-126).
T5 construct: Bought protein; also called recombinant human CD3ε; human CD3ε
As to the kind of experiment: SPR, CD3ε amine-coupled to CM5, antibody injected.

Experiment [11] has as its target T3, plasma-membranous human MSLN on cell …. The experiment is described as follows: flow cytometry on Met-5A cells, protein L-PE, 4PL fit.
For experiment [12] the target is unchanged. The experiment is described as follows: flow cytometry on H226 cells, protein L-PE, 4PL fit.
The target is the same in experiment [13]. The experiment is described as follows: flow cytometry on OVCAR-3 cells, protein L-PE, 4PL fit. (In general: A flow cytometer gives signals particle by particle.)

B1: reference anti-MSLN scFv PRO1795 (scFv)
scFv: DIQMTQSPSSLSASVGDRVTITCQASESIGNYLAWYQQKPGKAPKLLIYSASTLASGVPSRFSGSGSGTDFTLTISSLQPEDFATYYCQSTDYGDSYIFGTGTKVTVLGGGGGSGGGGSGGGGSGGGGSEVQLVESGGGLVQPGGSLRLSCAASGISVSNDYYMCWVRQAPGKGLEWIGCISTYIGNTHYASWAKGRFTISRDNSKNTVYLQMNSLRAEDTAVYYCAKNAGYPGYRYAIDLWGQGTLVTVSS
notes: also called 54-22-H03-sc01
A word on the EC50: it is the concentration that produces a half-maximal response. What is called Kd is the concentration at which binding is half-saturated. As a reminder, the koff is the first-order rate constant of dissociation. One may read the kon as the rate constant with which the complex forms. A word on the IC50: it is the concentration that inhibits the measured activity by half. On to B1, for which, in experiment [1], the EC50 worked out at 0.76 nM; the “rel. EC50 (EC50, Amatuximab/EC50, scFv)” value was 0.7 ratio; the “rel. Maximum binding (OD450-690 nm, scFv/OD450-690 nm, Amatuximab)” value (shortened to “rel. Maximum binding”) came to 0.81 ratio. For the same molecule, in experiment [2], the Kd was determined as 1.08 nM, the koff came to 0.0011 s⁻¹ and the kon turned out to be 1.02e+06 M⁻¹ s⁻¹. For the same molecule, in experiment [3], the EC50 turned out to be 0.25 nM; the “rel. EC50 (EC50, Amatuximab/EC50, scFv)” value turned out to be 0.98 ratio; the “rel. Maximum binding” value is 0.71 ratio. For the same molecule, in [4], the Kd amounted to 0.321 nM, the koff turned out to be 0.000183 s⁻¹ and the kon worked out at 568000 M⁻¹ s⁻¹. For the same molecule, in [5], the IC50 amounted to 0.02 nM; the “Maximum inhibition at highest sample conc.” value amounted to 99%; the “rel. IC50 (IC50, Amatuximab/IC50, scFv)” value was 0.87 ratio.

B2: anti-MSLN scFv PRO1783 (scFv)
scFv: DIQMTQSPSSLSASVGDRVTITCQASQNIYSNLAWYQQKPGKAPKLLIYDASDLASGVPSRFSGSGSGTDFTLTISSLQPEDFATYYCQQVRSSSDIDNPFGTGTKVTVLGGGGGSGGGGSGGGGSGGGGSQVQLVESGGGLVQPGGSLRLSCAASGFSLSSYAMGWVRQAPGKGLEWIGYISTINNTYYASWAKGRFTISRDNSKNTVYLQMNSLRAEDTAVYYCAREIRSGWVDYGFSIWGQGTLVTVSS
notes: also called 54-01-G02-sc01
In the case of B2, in [1], the concentration giving a half-maximal response (EC50) came out at 12 nM; the “rel. EC50 (EC50, Amatuximab/EC50, scFv)” value is 0.03 ratio; the “rel. Maximum binding” value was 0.89 ratio. In experiment [2], the Kd was 30.6 nM, the koff was determined as 0.0527 s⁻¹ and the kon turned out to be 1.72e+06 M⁻¹ s⁻¹. In addition, in [3], the EC50 worked out at 1.44 nM; the “rel. EC50 (EC50, Amatuximab/EC50, scFv)” value is 0.16 ratio; the “rel. Maximum binding” value is 0.57 ratio. Moreover, in experiment [4], the Kd came to 2.91 nM, the koff amounted to 0.00227 s⁻¹ and the kon amounted to 780000 M⁻¹ s⁻¹. Further, in experiment [5], the IC50 stood at 0.5 nM; the “Maximum inhibition at highest sample conc.” value was 99.2%; the “rel. IC50 (IC50, Amatuximab/IC50, scFv)” value stood at 0.03 ratio.

B3: PRO2566 (MATCH4) (other)
chain 1: AFELTQSPSSLSASVGDRVTITCQASESINSRLAWYQQKPGQPPKLLIYDASDLTSGVPSRFSGSGSGTDFTLTISSLQPEDFATYYCQGYGGSSTTTFGTGTKLTVLGGGGGSGGGGSGGGGSGGGGSEVQLVESGGGLVQPGGSLRLSCAASGFSLSSYAMNWVRQAPGKGLEWIGHINAGDIAYYATWAKGRFTISRDNSKNTVYLQMNSLRAEDTAVYFCARGAGGFSTGPFKLWGQGTLVTVSSGGGGSGGGGSEVQLVESGGGLVQPGGSLRLSCAASGFSLSSYDMSWVRQAPGKGLAWIGASYASGPTYYASWAKGRFTISRDNSKNTVYLQMNSLRAEDTATYFCARGGWTGTSHSNIWGQGTLVTVSSGGGSGGGSGGGSGQSQLVESGGGLVQPGGSLRLSCAVSGFSLSSYAMGWVRQAPGKCLEYIGYISKIGTTYYASWAKGRFTISKDNSKNTVYLQMNSLRAEDTAVYFCARGSSSGGYLDDGFDPWGQGTLVTVSS
chain 2: ALQMTQSPSSLSARVGDRVTIKCQASQSISNYLAWYQQKPGKPPKFLIYDASDLASGVPSRFSGSGSGRDFTLTISSLQPEDFATYYCQQVYDSNNVENVFGCGTKVTVLGGGGGSGGGGSGGGGSGGGGSQSQLVESGGGLVQPGGSLRLSCAVSGFSLSSYAMGWVRQAPGKCLEYIGYISKIGTTYYASWAKGRFTISKDNSKNTVYLQMNSLRAEDTAVYFCARGSSSGGYLDDGFDPWGQGTLVTVSSGGGGSGGGGSALQMTQSPSSLSARVGDRVTIKCQASQSISNYLAWYQQKPGKPPKFLIYDASDLASGVPSRFSGSGSGRDFTLTISSLQPEDFATYYCQQVYDSNNVENVFGCGTKVTVLGGGSGGSGGSGGSGDIQMTQSPSSLSASVGDRVTITCQSSQSVFSNNYLAWFQQKPGQSPKRLIYSASTLASGVPSRFSGSGSGTDFTLTISSLQPEDFATYYCLGSYACSSADCYVFGTGTKVTVLG
notes: Heterodimer
As for B3, in experiment [6], the Kd is 1.52 nM, the koff is 0.000608 s⁻¹ and the kon was found to be 400000 M⁻¹ s⁻¹. Further, in [7], the “Fold-diff Window (mean Met-5A EC50 / mean H226 EC50)” value was 436 fold; the “average mean H226 EC50, cell killing (LDH release)” value turned out to be 0.00609 nM; the “average mean Met-5A EC50, cell killing (LDH release)” value stood at 2.66 nM. Further, in experiment [8], the Kd was 6.89 nM, the koff came to 0.00399 s⁻¹ and the on-rate (kon) is 579000 M⁻¹ s⁻¹. In [9], the “Delta 0-50 ng/mL sMSLN (x-fold change in H226 killing potency)” value worked out at 3.1 fold and the “Delta 0-500 ng/mL sMSLN (x-fold change in H226 killing potency)” value came to 14.2 fold. Moreover, in experiment [10], the Kd was found to be 2.97 nM. Also, in experiment [11], the EC50 was determined as 0.106 nM and the “max. binding (MFI)” value turned out to be 12100 MFI. Moreover, in [12], the response was half-maximal at 0.564 nM (EC50) and the “max. binding (MFI)” value was 757000 MFI. In addition, in [13], it took 5.13 nM to reach a half-maximal effect (EC50) and the “max. binding (MFI)” value was 154000 MFI.
